{"source": "patent US20120277144", "biological_target": "cdc42, P60953", "sequence (P60953 1-188)": "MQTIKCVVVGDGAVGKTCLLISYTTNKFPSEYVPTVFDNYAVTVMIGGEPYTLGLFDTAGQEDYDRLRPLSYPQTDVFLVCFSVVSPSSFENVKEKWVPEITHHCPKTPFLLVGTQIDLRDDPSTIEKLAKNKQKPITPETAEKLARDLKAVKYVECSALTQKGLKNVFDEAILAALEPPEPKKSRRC"}
{"protein": "FYVE, RhoGEF and PH domain-containing 5 (FGD5) (protein) MFRGPKPPIAPKPRLTAPNEWRASVYLNDSLNKCSNGRLPCVDRGLDEGPRSIPKCSESETDEDYIVVPRVPLREDEPKDEGSVGNKALVSPESSAEEEEEREEGGEACGLEGTGAGEDSVAPAAPGAGALSREGEEGTDLALEDEGEGCADEPGTLEQVSRSEEEEKLVQPHRECSLEDSGPWAGEGVFQSDLLLPHIHGEDQEPPDTPGEAEEDDEEGCASTDPAGADEGSGPDRPTEDMGQDAEDTSEEPPEKEELAGVQEAETATDCPEVLEEGCEEATGVTGGEQVDLSEPPDHEKKTNQEVAAATLEDHAQDESAEESCQIVPFENDCMEDFVTSLTGSPYEFFPTESTSFCSESCSPLSESAKGLESEQAPKLGLRAEENPMVGALCGQCGSLQGGAAEGPAAPDVVVVLEEEALDDALANPYVMGVGLPGQAAPGEGGQAASDALGGYGSKEELNCEAEGGLVPADRKNTSTRVRPHSGKVAGYVPETVPEETGPEAGSSAPGIGGAAEEVGKTLLSLEGKPLEASRALPAKPRAFTLYPRSFSVEGREIPVSVYQEPEGSGLDDHRIKRKEDNLSLSCVIGSSGSFSQRNHLPSSGTSTPSSMVDIPPPFDLACITKKPITKSSPSLLIESDSPDKYKKKKSSFKRFLALTFKKKTENKLHVDVNVSSSRSSSESSYHGPSRILEVDRRSLSNSPQLKSRTGKLRASESPSSLIFYRDGKRKGVPFSRTVSRVESFEDRSRPPFLPLPLTKPRSISFPSADTSDYENIPAMNSDYENIQIPPRRPARAGAFTKLFEDQSRALSTANENDGYVDMSSFNAFESKQQSADQDAESAYTEPYKVCPISSAAPKEDLTSDEEQRSSEEEDSASRDPSVTHKVEGQSRALVIAQELLSSEKAYVEMLQHLNLDFHGAVMRALDDMDHEGRDTLAREELRQGLSELPAIHDLHQGILEELEERLSNWESQQKVADVFLAREQGFDHHATHILQFDRYLGLLSENCLHSPRLAAAVREFEQSVQGGSQTAKHRLLRVVQRLFQYQVLLTDYLNNLCPDSAEYDNTQGALSLISKVTDRANDSMEQGENLQKLVHIEHSVRGQGDLLQPGREFLKEGTLMKVTGKNRRPRHLFLMNDVLLYTYPQKDGKYRLKNTLAVANMKVSRPVMEKVPYALKIETSESCLMLSASSCAERDEWYGCLSRALPEDYKAQALAAFHHSVEIRERLGVSLGERPPTLVPVTHVMMCMNCGCDFSLTLRRHHCHACGKIVCRNCSRNKYPLKYLKDRMAKVCDGCFGELKKRGRAVPGLMRERPVSMSFPLSSPRFSGSAFSSVFQSINPSTFKKQKKVPSALTEVAASGEGSAISGYLSRCKRGKRHWKKLWFVIKGKVLYTYMASEDKVALESMPLLGFTIAPEKEEGSSEVGPIFHLYHKKTLFYSFKAEDTNSAQRWIEAMEDASVL", "values": [{"measurement": "GTP-cdc42 level in a GEF-activity assay (G-lisa, chemo-luminescent measurement of GTP-bound small G-proteins in lysates of Sham Ad or Ad-FGD5 transfected HUVECs)", "value": "cdc42-FGD5 binding led to specific activation of cdc42 in a GEF-activity assay"}]}
